These results are taken from the RNAGym collection of RNA variant scans (doi:10.1073/pnas.2313332121).

The labels stand for the following.
B1: TPR t1 (parent)
chain: GACCAAUCUGCCCUCAGAGCUCGAGAACAUCUUCGGAUGCAGAGGAGGCAGGCUUCGGUGGCGCGAUAGCGCCAACGUCCUCAACCUCCAAUGCAUCCCACCACAUGAUGAUGCCUGAAGAGCCUUGGUUUUUUG

In this series the parent is B1. The series is described as follows: polymerase ribozyme fitness, log enrichment relative to wild type (log ratio); higher = more active; in vitro selection for triplet polymerase activity. The method, boiled down: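 Mutant libraries were PCR-built and transcribed for each subunit of a heterodimeric triplet polymerase ribozyme and selected for one round in triplicate at −7 °C, frozen, before gel excision of extended constructs and streptavidin-bead capture. Input and output libraries were Illumina-sequenced, keeping genotypes with ≥10 input reads and ≥1 read per output. Fitness is a logarithmic ratio of genotype to wild-type enrichment, in base 2, using inverse-variance-weighted replicate averages.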
Consider C8A C28G, for which the “polymerase ribozyme fitness (log ratio)” value was -2.05.
The value for U55A U81A was -0.637; that for U21C A27U was -4.9; that for C15G G61A was -1.86.
The value for C49G A103U C124U was -4.18; that for A50U C124G was -0.185; that for G63U C73A was -2.51.
The value for G36A G93C was -1.47.
For the variant A50C G69C C104U, the “polymerase ribozyme fitness (log ratio)” value was -1.11.
The value for G57C U116A was -2.89; that for C53U G58U C70U was -0.221; that for C11U C28A was -3.2.
The value for A26U G39A G120C C124A G135A was -3.54; that for C56A A84G C104U G120A was -1.12; that for G60A G107A was -2.9.
The value for G47U G71U was -2.23; that for C11G A37G C40G C72A C101U C123A was 0.0924; that for U7C C49A G61U A75U U96A was -0.699.
For the variant G10U U14A C40A, the “polymerase ribozyme fitness (log ratio)” value was -2.63.
For C3U A29G G48C C73G C79G C101U, the “polymerase ribozyme fitness (log ratio)” value was -5.51.
The value for A26U C64U was -3.52.
The value for C13A A46C C64U U112C was -1.16.
The value for C73A C97A was -4.87; that for C8G A46G A66C A90U was -4.16.
With C64U G122A, the “polymerase ribozyme fitness (log ratio)” value was -0.796.
Regarding A5U A6C C11U, the “polymerase ribozyme fitness (log ratio)” value is -0.244.
In the case of G17A C79G C124G U125A, the “polymerase ribozyme fitness (log ratio)” value was -4.5.
C8A C97A: the “polymerase ribozyme fitness (log ratio)” value is -4.07.
The value for G52A A84U U131G was -0.974; that for C31U G61U was -4.59.
Consider C15A G57U, for which the “polymerase ribozyme fitness (log ratio)” value was -2.02.
With G47U G71C U126G, the “polymerase ribozyme fitness (log ratio)” value was -3.65.
The value for C86A U92A C115A C123G was -2.27.
The value for A26G C82U C124A G127C U133C G135U was -4.09.
The value for G60U C62U U78G C80A U112C was -1.42; that for U32C U78A A84G G122A was -2.
As to C8G C40A C49G G52U G120C U132A, the “polymerase ribozyme fitness (log ratio)” value was 0.561.
The value for C40A G63A C79A C86A C104A C114U was -7.08; that for C20A C28U A46C G113U C115A was -4.17; that for C72A C73G C86U C115A C123G was -0.582.
C12G G63C: the “polymerase ribozyme fitness (log ratio)” value is -1.09.
The value for A5G U9G U21A C56U A83U was 0.0637.
On to A46G G48A C64A, for which the “polymerase ribozyme fitness (log ratio)” value was -6.8.
The value for C11A C72G C79A C85A A121U was -1.86; that for G17U C70G C82G C124A U131G was -4.66.
C13G C62G: the “polymerase ribozyme fitness (log ratio)” value was -3.43.
The value for G93A G120A was 0.446.
For the variant U9A C62G C97U U109G, the “polymerase ribozyme fitness (log ratio)” value was -7.26.
For the variant C88A U106A G128U, the “polymerase ribozyme fitness (log ratio)” value was -3.15.
The value for C62G C89A was -4.23; that for C13U C56U C97G G127A was -4.74.
Regarding C15G A43U A84U, the “polymerase ribozyme fitness (log ratio)” value is -5.64.
With C49A A66U A90C, the “polymerase ribozyme fitness (log ratio)” value is -3.76.
The value for G71C G135C was -1.39.
On to C20U U116G, for which the “polymerase ribozyme fitness (log ratio)” value was -4.59.
With C8G C13G C40U U54G, the “polymerase ribozyme fitness (log ratio)” value was determined as 0.0381.
G10U A121U: the “polymerase ribozyme fitness (log ratio)” value worked out at 1.92.
The value for U54C G58A U92C was -0.614.
The value for C22G G63U C88G was -5.64.
On to A18U C72U, for which the “polymerase ribozyme fitness (log ratio)” value was -2.03.
Regarding A68U C102A, the “polymerase ribozyme fitness (log ratio)” value was -6.73.
With C72U A118U G120U, the “polymerase ribozyme fitness (log ratio)” value was -0.322.
Turning to A26G C62U, the “polymerase ribozyme fitness (log ratio)” value is -1.47.
Take G60C C102A G110A: the “polymerase ribozyme fitness (log ratio)” value is -4.88.
The value for G69A C99A was -7.72; that for U38G G42U G120C U126G G128U was -3.39; that for U9G A41U G61U U87A G110A was -3.56.
The value for U54A U87G C123A was 0.724; that for C104U U106C G120U was -0.245.
U21A A50G A95G A105C: the “polymerase ribozyme fitness (log ratio)” value was -3.34.
The value for C73U C86U was 0.0966; that for C20G C88U C114G U130C U132A was -5.66; that for A29U C124U U131A was -0.63.
The value for C13A U33G C124G was -4.34.
For C49G G93U C94A, the “polymerase ribozyme fitness (log ratio)” value was -3.18.
As to A41C C98U G117A, the “polymerase ribozyme fitness (log ratio)” value was -5.3.
The value for A37G G61A C101A G127A was -1.91; that for C72U A100U was -0.925.
Take C15U U32C: the “polymerase ribozyme fitness (log ratio)” value was -1.42.
The value for C8U C13U C22G U59A U81C U109A was -5.73; that for C20A G127C was -2.94; that for C12U A26U U32G A46C G48U A50G A74U C94G C114G was -7.12.
For G57U G117A G135U, the “polymerase ribozyme fitness (log ratio)” value was -2.73.
Consider G47U A66C C115U U130A G135A, for which the “polymerase ribozyme fitness (log ratio)” value is -5.53.
